Measured values from PMC12876063, “Rad51 determines pathway usage in post-replication repair” (Nature Communications, 2026).
Values joined by “and” are separate entries in the source; they are usually repeats but may differ in a detail not shown here. Equal values may be shown once.

T1: Rad51 wild type (Saccharomyces cerevisiae) (UniProt P25454)
T1 sequence: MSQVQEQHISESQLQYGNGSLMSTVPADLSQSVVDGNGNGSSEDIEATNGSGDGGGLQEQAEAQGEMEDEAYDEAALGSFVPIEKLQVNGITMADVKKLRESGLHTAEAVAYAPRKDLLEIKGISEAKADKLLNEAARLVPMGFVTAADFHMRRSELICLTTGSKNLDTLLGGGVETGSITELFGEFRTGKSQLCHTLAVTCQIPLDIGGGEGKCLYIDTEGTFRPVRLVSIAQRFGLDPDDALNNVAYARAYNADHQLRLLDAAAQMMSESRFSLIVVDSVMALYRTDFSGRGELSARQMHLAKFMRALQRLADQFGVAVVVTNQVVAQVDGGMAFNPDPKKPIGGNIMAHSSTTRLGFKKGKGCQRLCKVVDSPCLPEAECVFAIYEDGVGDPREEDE

T2: Rad51-ED (Rad51-E135D) E135D (Saccharomyces cerevisiae) (UniProt P25454)
T2 sequence: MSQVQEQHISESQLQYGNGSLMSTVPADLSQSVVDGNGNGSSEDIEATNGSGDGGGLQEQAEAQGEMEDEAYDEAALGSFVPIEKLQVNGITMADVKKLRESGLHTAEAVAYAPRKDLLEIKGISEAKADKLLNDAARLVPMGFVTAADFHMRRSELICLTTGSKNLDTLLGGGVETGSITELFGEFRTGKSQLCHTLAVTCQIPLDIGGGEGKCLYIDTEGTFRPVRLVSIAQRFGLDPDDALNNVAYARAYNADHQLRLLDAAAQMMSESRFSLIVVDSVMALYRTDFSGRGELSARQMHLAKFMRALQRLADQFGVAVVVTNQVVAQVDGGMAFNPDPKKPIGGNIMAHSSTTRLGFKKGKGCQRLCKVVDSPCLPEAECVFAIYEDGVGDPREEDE

T3: Rad51-KN (Rad51-K305N) K305N (Saccharomyces cerevisiae) (UniProt P25454)
T3 sequence: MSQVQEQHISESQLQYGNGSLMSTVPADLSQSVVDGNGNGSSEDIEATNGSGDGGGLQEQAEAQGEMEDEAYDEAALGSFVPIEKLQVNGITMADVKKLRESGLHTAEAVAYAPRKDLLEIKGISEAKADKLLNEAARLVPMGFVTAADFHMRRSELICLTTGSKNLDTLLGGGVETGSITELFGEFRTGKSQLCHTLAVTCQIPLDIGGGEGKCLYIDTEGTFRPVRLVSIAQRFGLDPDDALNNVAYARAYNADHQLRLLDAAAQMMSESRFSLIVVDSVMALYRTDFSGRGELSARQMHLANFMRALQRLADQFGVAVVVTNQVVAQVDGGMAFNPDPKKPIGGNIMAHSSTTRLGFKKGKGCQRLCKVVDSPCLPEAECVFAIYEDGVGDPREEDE

T4: GST-Rad55-His6-Rad57 complex (S. cerevisiae, UniProt P38953 1-406; P25301 1-460)
T4 construct: Rad55, Rad51 paralog of budding yeast; Rad57, Rad51 paralog of budding yeast; stored in 20 mM Tris-HCl pH 7.5, 0.2 M NaCl, 0.1 mM EDTA, 1 mM DTT, 50% glycerol; also called Rad55-Rad57; Rad51 paralog complex; source: purified as described (Liu et al. 2011b)
T4 sequence (looked up) 1: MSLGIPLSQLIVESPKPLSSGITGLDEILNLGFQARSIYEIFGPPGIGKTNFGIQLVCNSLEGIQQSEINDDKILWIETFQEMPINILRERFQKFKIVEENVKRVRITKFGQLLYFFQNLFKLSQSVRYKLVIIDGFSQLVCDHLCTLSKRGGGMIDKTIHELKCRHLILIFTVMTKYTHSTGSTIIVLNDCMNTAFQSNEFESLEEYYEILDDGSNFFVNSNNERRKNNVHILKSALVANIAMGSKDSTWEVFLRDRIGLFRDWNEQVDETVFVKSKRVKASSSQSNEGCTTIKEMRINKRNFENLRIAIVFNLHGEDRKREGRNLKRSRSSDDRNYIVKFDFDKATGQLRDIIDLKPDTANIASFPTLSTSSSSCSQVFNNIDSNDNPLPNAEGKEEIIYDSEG
T4 sequence (looked up) 2: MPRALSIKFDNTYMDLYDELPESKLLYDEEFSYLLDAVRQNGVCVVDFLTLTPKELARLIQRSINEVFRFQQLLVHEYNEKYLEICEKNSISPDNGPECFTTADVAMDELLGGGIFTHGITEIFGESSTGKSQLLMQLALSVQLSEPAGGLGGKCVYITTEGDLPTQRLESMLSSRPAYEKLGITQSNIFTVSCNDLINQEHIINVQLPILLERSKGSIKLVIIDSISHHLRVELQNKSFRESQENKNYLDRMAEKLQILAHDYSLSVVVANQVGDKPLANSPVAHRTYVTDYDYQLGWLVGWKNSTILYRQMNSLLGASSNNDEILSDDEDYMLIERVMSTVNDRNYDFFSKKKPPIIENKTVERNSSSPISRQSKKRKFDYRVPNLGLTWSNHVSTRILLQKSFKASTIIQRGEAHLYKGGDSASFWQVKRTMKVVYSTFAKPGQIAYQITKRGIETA


Tests used:
[1] = molecular target: T1, Rad51 wild type (Saccharomyces cerevisiae); assay: EMSA (salt titration); settings: 3.33 uM Rad51, ATP, Mg2+, glutaraldehyde fixed; Kd EMSA: 35 mM Tris-acetate pH 7.5, 50 or 100 mM NaCl, 7 mM Mg acetate, 2 mM ATP, 1 mM DTT, 0.25 mg/mL BSA, 3 uM nt/bp DNA, 30 C 30 min; salt titration: 20 mM …
[2] = molecular target: T2, Rad51-ED (Rad51-E135D) E135D (Saccharomyces cerevisiae); assay: EMSA (salt titration); settings: 3.33 uM Rad51, ATP, Mg2+; listed as label assigned from text (ED defect stronger); Kd EMSA: 35 mM Tris-acetate pH 7.5, 50 or 100 mM NaCl, 7 mM Mg acetate, 2 mM ATP, 1 mM DTT, 0.25 mg/mL BSA, 3 uM nt/bp DNA, 30 C 30 min; salt titration: 20 mM …
[3] = molecular target: T3, Rad51-KN (Rad51-K305N) K305N (Saccharomyces cerevisiae); assay: EMSA (salt titration); settings: 3.33 uM Rad51, ATP, Mg2+; listed as label assigned from text (ED defect stronger); Kd EMSA: 35 mM Tris-acetate pH 7.5, 50 or 100 mM NaCl, 7 mM Mg acetate, 2 mM ATP, 1 mM DTT, 0.25 mg/mL BSA, 3 uM nt/bp DNA, 30 C 30 min; salt titration: 20 mM …
[4] = molecular target: T1, Rad51 wild type (Saccharomyces cerevisiae); assay: EMSA; settings: Kd EMSA: 35 mM Tris-acetate pH 7.5, 50 or 100 mM NaCl, 7 mM Mg acetate, 2 mM ATP, 1 mM DTT, 0.25 mg/mL BSA, 3 uM nt/bp DNA, 30 C 30 min; salt titration: 20 mM …
[5] = molecular target: T2, Rad51-ED (Rad51-E135D) E135D (Saccharomyces cerevisiae); assay: EMSA; settings: Kd EMSA: 35 mM Tris-acetate pH 7.5, 50 or 100 mM NaCl, 7 mM Mg acetate, 2 mM ATP, 1 mM DTT, 0.25 mg/mL BSA, 3 uM nt/bp DNA, 30 C 30 min; salt titration: 20 mM …
[6] = molecular target: T3, Rad51-KN (Rad51-K305N) K305N (Saccharomyces cerevisiae); assay: EMSA; settings: Kd EMSA: 35 mM Tris-acetate pH 7.5, 50 or 100 mM NaCl, 7 mM Mg acetate, 2 mM ATP, 1 mM DTT, 0.25 mg/mL BSA, 3 uM nt/bp DNA, 30 C 30 min; salt titration: 20 mM …
[7] = molecular target: T4, GST-Rad55-His6-Rad57 complex; assay: pull-down; 100 nM GST-Rad55-His6-Rad57 with 100 nM Rad51 in buffer P (25 mM Tris-acetate pH 7.5, 10 mM magnesium acetate, 50 mM NaCl, 1 mM DTT, 10% glycerol, 0.01% NP-40), 25 ul, 1 h at room temperature; captured on BSA-treated glutathione agarose beads; immunoblot with anti-Rad51 and anti-GST; settings: both partners purified

| Molecule | salt titration midpoint (mM NaCl (salt titration midpoint)) [1] | salt titration midpoint (mM NaCl (salt titration midpoint)) [2] | salt titration midpoint (mM NaCl (salt titration midpoint)) [3] | binding result [7] | further results |
| --- | --- | --- | --- | --- | --- |
| PhiX174 RF1 dsDNA | 174 | 42 | 71 |  |  |
| PhiX174 viral ssDNA | 246 | 130 | 143 |  |  |
| AACGACGTTTGGTCAGTTCCATCAACATCATAGCCAGATGCCCAGAGATTAGAGCGCATGACAAGTAAAGGACGGTTGTCAGCGTCATAAGAGGTTTTAC [olWDH2086 100 nt ssDNA] |  |  |  |  | Kd [4]: 497 nM and 578 nM; Kd [5]: 486 nM and 602 nM; Kd [6]: 339 nM and 402 nM |
| Rad51 wild type protein (natural protein, S. cerevisiae, UniProt P25454 1-400, looked up, Rad51, Saccharomyces cerevisiae; native, untagged protein; Purified native and untagged; also called wild-type Rad51; wild type Rad51) MSQVQEQHISESQLQYGNGSLMSTVPADLSQSVVDGNGNGSSEDIEATNGSGDGGGLQEQAEAQGEMEDEAYDEAALGSFVPIEKLQVNGITMADVKKLRESGLHTAEAVAYAPRKDLLEIKGISEAKADKLLNEAARLVPMGFVTAADFHMRRSELICLTTGSKNLDTLLGGGVETGSITELFGEFRTGKSQLCHTLAVTCQIPLDIGGGEGKCLYIDTEGTFRPVRLVSIAQRFGLDPDDALNNVAYARAYNADHQLRLLDAAAQMMSESRFSLIVVDSVMALYRTDFSGRGELSARQMHLAKFMRALQRLADQFGVAVVVTNQVVAQVDGGMAFNPDPKKPIGGNIMAHSSTTRLGFKKGKGCQRLCKVVDSPCLPEAECVFAIYEDGVGDPREEDE |  |  |  | binds |  |
| Rad51-K305N (natural protein, S. cerevisiae, UniProt P25454 1-400, looked up, Rad51, Saccharomyces cerevisiae, with the single change K305N (isolated by mutagenic PCR); native, untagged protein; also called Rad51-KN; RAD51-KN) MSQVQEQHISESQLQYGNGSLMSTVPADLSQSVVDGNGNGSSEDIEATNGSGDGGGLQEQAEAQGEMEDEAYDEAALGSFVPIEKLQVNGITMADVKKLRESGLHTAEAVAYAPRKDLLEIKGISEAKADKLLNEAARLVPMGFVTAADFHMRRSELICLTTGSKNLDTLLGGGVETGSITELFGEFRTGKSQLCHTLAVTCQIPLDIGGGEGKCLYIDTEGTFRPVRLVSIAQRFGLDPDDALNNVAYARAYNADHQLRLLDAAAQMMSESRFSLIVVDSVMALYRTDFSGRGELSARQMHLANFMRALQRLADQFGVAVVVTNQVVAQVDGGMAFNPDPKKPIGGNIMAHSSTTRLGFKKGKGCQRLCKVVDSPCLPEAECVFAIYEDGVGDPREEDE |  |  |  | binds |  |
| Rad51-E135D (natural protein, S. cerevisiae, UniProt P25454 1-400, looked up, Rad51, Saccharomyces cerevisiae, with the single change E135D (isolated by mutagenic PCR); native, untagged protein; also called Rad51-ED; rad51-ED) MSQVQEQHISESQLQYGNGSLMSTVPADLSQSVVDGNGNGSSEDIEATNGSGDGGGLQEQAEAQGEMEDEAYDEAALGSFVPIEKLQVNGITMADVKKLRESGLHTAEAVAYAPRKDLLEIKGISEAKADKLLNDAARLVPMGFVTAADFHMRRSELICLTTGSKNLDTLLGGGVETGSITELFGEFRTGKSQLCHTLAVTCQIPLDIGGGEGKCLYIDTEGTFRPVRLVSIAQRFGLDPDDALNNVAYARAYNADHQLRLLDAAAQMMSESRFSLIVVDSVMALYRTDFSGRGELSARQMHLAKFMRALQRLADQFGVAVVVTNQVVAQVDGGMAFNPDPKKPIGGNIMAHSSTTRLGFKKGKGCQRLCKVVDSPCLPEAECVFAIYEDGVGDPREEDE |  |  |  | binds |  |
